# Source: patent US20070196376A1 (AstraZeneca / MedImmune, published 2007)
# What was measured:
# IGF-I/IGFBP-3 complex = biological target: T1, IGF-I/IGFBP-3 complex (UniProt P05019 49-118); test: Biacore, mAb immobilised, preformed complex injected
# T1 construct: Preformed non-covalent complex; IGF-I 99.97% complexed by IGFBP-3; also called complexed IGF-I/IGFBP-3
# IGF-II/IGFBP-3 complex = biological target: T2, IGF-II/IGFBP-3 complex (UniProt P01344 25-91); test: as above
# T2 construct: Preformed non-covalent complex; IGF-II 99.97% complexed by IGFBP-3; also called complexed IGF-II/IGFBP-3
# [1] = biological target: T3, Recombinant human IGF-I (insulin-like growth factor-I) (human, UniProt P05019 49-118); test: limited antigen ELISA, supernatant 1:25
# T3 construct: Bought; also called IGF1; IGF-1
# [2] = biological target: T4, Recombinant human IGF-II (insulin-like growth factor-II) (human, UniProt P01344 25-91); test: limited antigen ELISA, supernatant 1:25
# T4 construct: Bought; also called IGF2; IGF-2
# human insulin = biological target: T5, human insulin (human, UniProt P01308 25-54; P01308 90-110, limits assumed); test: Biacore, mAb on CM5 chip, insulin injected
# T5 construct: The mature hormone has an A and a B chain cut from the precursor; also called recombinant insulin; hu-Insulin
# [3] = biological target: T6, human insulin-like growth factor-I (IGF-I) (human, UniProt P05019 49-118); test: cell-based or functional assay
# [4] = biological target: T7, human insulin-like growth factor-II (IGF-II) (human, UniProt P01344 25-91); test: cell-based or functional assay
# [5] = biological target: T7, human insulin-like growth factor-II …; test: cell-based or functional assay; remark: listed apart in the source
# [6] = biological target: T6, human insulin-like growth factor-I …; test: cell-based or functional assay; remark: listed apart in the source
# [7] = biological target: T7, human insulin-like growth factor-II …; test: cell-based or functional assay; remark: listed apart in the source
# [8] = biological target: T6, human insulin-like growth factor-I …; test: cell-based or functional assay; remark: listed apart in the source
# [9] = biological target: T7, human insulin-like growth factor-II …; test: cell-based or functional assay; remark: listed apart in the source
# [10] = biological target: T7, human insulin-like growth factor-II …; test: Biacore low-resolution screen, mAb captured, IGF-II injected
# [11] = biological target: T6, human insulin-like growth factor-I …; test: Biacore low-resolution screen, mAb captured, IGF-I injected
binder,measurement,setting,value
"mAb 7.159.2 (ATCC Accession Number PTA-7424) (antibody, V domains shown, Fully human, lambda light chain (V1-19/JL2); also called 7.159.1; 7_159_1) VH: QVQLVQSGAEVKKPGASVKVSCKASGYTFTSYDINWVRQATGQGLEWMGWMNPNSGNTGYAQKFQGRVTMTRNTSISTAYMELSSLRSEDTAVYYCARDPYYYYYGMDVWGQGTTVTVSS VL: QSVLTQPPSVSAAPGQKVTISCSGSSSNIENNHVSWYQQLPGTAPKLLIYDNNKRPSGIPDRFSGSKSGTSATLGITGLQTGDEADYYCETWDTSLSAGRVFGGGTKLTVLG",Kd,IGF-I/IGFBP-3 complex,> 1000 nM
same,Kd,IGF-II/IGFBP-3 complex,> 1000 nM
same,"LA OD, IGF1 2 ng/ml",[1],0.56 OD 450 nm
same,"LA OD, IGF1 4 ng/ml",[1],0.98 OD 450 nm
same,"LA OD, IGF2 2 ng/ml",[2],1.65 OD 450 nm
same,"LA OD, IGF2 4 ng/ml",[2],2.47 OD 450 nm
same,binding result,human insulin,no binding (tested: 502 nM)
"mAb 7.158.2 (antibody, V domains shown, Kappa light chain (L5/JK3); also called 7.158.1; 7_158_1) VH: QLQLQESGPGLVKPSETLSLTCTVSGGSIRSSSYYWGWIRQPPGKGLEWIGGIYYSGSTYYNPSLKSRVTMSVDTSKNQFSLKLSSVTAADTAVYYCARQRGHSSGWWYFDLWGRGTLVTVSS VL: DIQMTQSPSSVSASVGDSVTITCRASQGISSYLAWYQQKPGKAPKLLIYAASSLQSGVPSRFSGNGSGTDFTLTISSLQPEDFATYYCQQANNFPFTFGPGTKVDIKR","% Inhibition, mean (n = 3), IGF-I Proliferation Assay, NIH3T3/hIGF-IR cells",[3],57.4%
same,"EC50 (nM), mean (n = 3), IGF-I Proliferation Assay, NIH3T3/hIGF-IR cells",[3],42.8 nM
same,"% Inhibition, mean (n = 2), IGF-II Proliferation Assay, NIH3T3/hIGF-IR cells",[4],54.6%
same,"EC50 (nM), mean (n = 2), IGF-II Proliferation Assay, NIH3T3/hIGF-IR cells",[4],36 nM
same,"EC50 (nM), n = 1, IGF-II Proliferation, BxPC3 cells",[5],0.0013 nM
same,"Max % Inhibition (133.3 nM), n = 2, IGF-II Proliferation, BxPC3 cells",[5],148%
same,"Max % Inhibition (333.3 nM), n = 1, IGF-II Proliferation, BxPC3 cells",[5],86.3%
same,"% MAX Activation, mean (n = 2), IGF-I pTYR of hIGF-IR in NIH3T3 cells",[6],22.7%
same,"EC50 (nM), mean (n = 2), IGF-I pTYR of hIGF-IR in NIH3T3 cells",[6],28.3 nM
same,"% MAX Activation, mean (n = 2), IGF-II pTYR of hIGF-IR in NIH3T3 cells",[7],33.7%
same,"EC50 (nM), mean (n = 2), IGF-II pTYR of hIGF-IR in NIH3T3 cells",[7],11.3 nM
same,"EC50 (nM), n = 1, IGF-I pTYR, BxPC3 cells",[8],4.5 nM
same,"EC50 (nM), n = 2, IGF-I pTYR, BxPC3 cells",[8],3.6 nM
same,"Max % Inhibition (333.3 nM), n = 1, IGF-I pTYR, BxPC3 cells",[8],92.9%
same,"Max % Inhibition (333.3 nM), n = 2, IGF-I pTYR, BxPC3 cells",[8],89.4%
same,"EC50 (nM), n = 2, IGF-II pTYR, BxPC3 cells",[9],4.2 nM
same,"Max % Inhibition (133.3 nM), n = 2, IGF-II pTYR, BxPC3 cells",[9],74%
same,"Max % Inhibition (333.3 nM), n = 1, IGF-II pTYR, BxPC3 cells",[9],92.4%
same,Kd,[10],0.197 nM
same,koff,[10],0.00067 s⁻¹
same,kon,[10],3.4e+06 M⁻¹ s⁻¹
same,Kd,[11],0.5 nM
same,koff,[11],0.0022 s⁻¹
same,kon,[11],4.4e+06 M⁻¹ s⁻¹
"mAb 7.158.2 (antibody, V domains shown, also called 7.158.1; 7_158_1) VH: QLQLQESGPGLVKPSETLSLTCTVSGGSIRSSSYYWGWIRQPPGKGLEWIGGIYYSGSTYYNPSLKSRVTMSVDTSKNQFSLKLSSVTAADTAVYYCARQRGHSSGWWYFDLWGRGTLVTVSS VL: DIQMTQSPSSVSASVGDSVTITCRASQGISSYLAWYQQKPGKAPKLLIYAASSLQSGVPSRFSGNGSGTDFTLTISSLQPEDFATYYCQQANNFPFTFGPGTKVDIKR","LA OD, IGF1 2 ng/ml",[1],1.71 OD 450 nm
same,"LA OD, IGF1 4 ng/ml",[1],3 OD 450 nm
same,"LA OD, IGF2 2 ng/ml",[2],1.42 OD 450 nm
same,"LA OD, IGF2 4 ng/ml",[2],2.46 OD 450 nm
"mAb 7.234.2 (antibody, V domains shown, also called 7.234.1; 7_234_1) VH: QLQLQESGPGLVKPSETLSLTCTVSGGSINSSSNYWGWIRQPPGKGLAWIGGIYYSGSTYYNPSLRSRVTMSVDTSKNQFSLKLSSVTAADTAVYYCARQRGHSSGWWYFDLWGRGTLVTVSS VL: DIQMTQSPSSVSASVGDRVTITCRASRGISSWLAWYQQRPGKAPKLLIYTASSLQSGVPSRFSGSGSGTDFTLTISSLQPEDFATYYCQQANSFPFTFGPGTKVDIKR","LA OD, IGF1 2 ng/ml",[1],0.7 OD 450 nm
same,"LA OD, IGF1 4 ng/ml",[1],1.79 OD 450 nm
same,"LA OD, IGF2 2 ng/ml",[2],1.4 OD 450 nm
same,"LA OD, IGF2 4 ng/ml",[2],2.44 OD 450 nm
same,binding result,human insulin,no binding (tested: 502 nM)
